Blank lines part the entries; values can stand above or below the molecule they belong to.
Key:
Recombinant CYP26A1 = molecular target: T1, Recombinant CYP26A1 (UniProt O43174)
T1 sequence: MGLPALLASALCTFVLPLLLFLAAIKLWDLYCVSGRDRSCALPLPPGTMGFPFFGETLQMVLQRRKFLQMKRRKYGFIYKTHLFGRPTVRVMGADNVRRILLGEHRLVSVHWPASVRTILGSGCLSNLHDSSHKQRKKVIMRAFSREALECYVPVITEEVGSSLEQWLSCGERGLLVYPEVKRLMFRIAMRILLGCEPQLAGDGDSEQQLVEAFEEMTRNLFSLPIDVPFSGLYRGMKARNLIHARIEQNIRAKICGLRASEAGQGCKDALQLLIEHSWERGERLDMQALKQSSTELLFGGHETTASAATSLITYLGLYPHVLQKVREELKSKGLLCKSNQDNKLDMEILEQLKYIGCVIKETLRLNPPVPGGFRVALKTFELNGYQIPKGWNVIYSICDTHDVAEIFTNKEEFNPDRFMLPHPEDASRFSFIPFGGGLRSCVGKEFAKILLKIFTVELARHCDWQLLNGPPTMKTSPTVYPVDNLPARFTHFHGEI

CYP26A1 = molecular target: T2, CYP26A1 (Homo sapiens, UniProt O43174); test: enzyme inhibition kinetics
T2 chain: T1 sequence

αKm (affinity of holo-CRABP1, with atRA bound, for CYP26A1), from a global fit of the protein-protein interaction model (Equation 3) to 4-OH-atRA formation velocities (Recombinant CYP26A1): 0.99 nM
Molecule: Cellular retinoic acid binding protein 1 (CRABP1) (from UniProt P29762 1-137) (natural protein)

Ki (CYP26A1): 0.53 nM | αKm (affinity of holo-CRABP2, with atRA bound, for CYP26A1), from a global fit of the protein-protein interaction model (Equation 3) to 4-OH-atRA formation velocities (Recombinant CYP26A1): 0.75 nM
B1: CRABP2 (protein)
chain: MPNFSGNWKIIRSENFEELLKVLGVNVMLRKIAVAAASKPAVEIKQEGDTFYIKTSTTVRTTEINFKVGEEFEEQTVDGRPCKSLVKWESENKMVCEQKLLKGEGPKTSWTRELTNDGELILTMTADDVVCTRVYVRE

Source: paper PMC9105409 (2022)
